This passage reports Expression results from patent US20230226096A1 (Orna Therapeutics, Inc., priority 2020, published 2023).

The chains are these.
B1: Ia Io (nucleic acid)
DNA: GGTGTCCGGGTGTGTGGGATAGACCCAGATGTGCAGTGGATGCGAGCATTTGAGTCAGAGTAGGAGCAAGCCCAGGGGCAAAGGGACCACATTGTGTATCCCGAATGAAGGATCGAGATTTCTCTCCTCATTACCCGGTGTCTTGTCACTGTTGGGGGGGCCCAACAGTCTTAGTCCTATACTGCCTGATAGGGTCGCGGCTGGCCGGACTCAAGTGCTATAGTCAGTTGATTTTCACTC
B2: Burpengary Virus (nucleic acid)
DNA: CTCCCCCCCCTTCCCCTTCCCGAGTAGGAGATTGGCATGTATGCTCTACATGCCCGATTCTCTCTTGCTCACTCTCTTAAATCCTGGTGGCGGTCTCGGATTAAACATTTATGTCGTATCTGGGATCGTCTTACTTGGTGGTAATTCCTCTGTTGCCTAGGGACCTCCGGACTGCCGGATTAAAGGTCTCAACAGAGGGCAATGTACAAGGAAGTCATTATACGCTAATTAAGTATTTGATGAATGACTAGTGTGACAGGGCTGAGGAACTCCCCCCGGGTAACCGGTGCCTCAGCGTCCGAAAGACACGTGGATAGGATCCACCCTGTTATACCCAGCACGATGTAATAGTCAAATACCTCTGATTTGTGTAGGATGTATAAATTGTGCATTGTAAATTTTGGGCGTAGAGATGCTCCGAAGGTACCCCGTTTTACGGGATCTGATCGGAGGCTAATTACCCAATGCGCCCTAAATAACTTCATATAATTTCTTTTTCTTTATTCAAA
B3: ABPV (nucleic acid)
DNA: CCCGTCAAAATAACAACTTATAACACGATGTTACCCGAAGAAACCATTTTAGTGTAACATTTAAGATTAGAAGTAGTTCATCTAATAGAGATAGGCACTATTAGAAGGAGGCCTTTTCTAAAGGAGCCGTTAGTCAGCCCAGACAAGCGCAGTACTTTAGAAGAGAGAAGTTCCCCGATAGCGACCGAAAAGACGCGTTTTCCGTGCTAACTAATTTAAATGTGGGAACGAATATTATTATTGAAATTATGTGAGCCACGTAGCAATCAAGTCATGTTTTTGTCACTACGTTTACTCATCTAATGTAGATAATTTTGTTTAAGTACCTATTTAGGTGTCATCCCACCAGAGAAGAAATAATACGTACCGGAACCCAGAGTACACCCCTTATTTTAAGCCTTACTGGGCTTCTCTGTTAGTTAGTAATCTGGCCCACGTTTTGCGTTGAGTGGGGTCCCAACAGTAGGAATTCGACGGACAAGTAGCAAGCGAGTCGGTACCAATTGGTTTAGCCTTCGAAATTACTCTGGGCAGGAAGTTACTAAACGAGAACTTTCTGCTTAAATCCCAACGCACAAACAAATAGAGTAAATAAATAATTATA
modifications: Acute bee paralysis virus
B4: Hunnivirus A1 (nucleic acid, listed as Hunnivirus sp.)
DNA: TAACGTTTGGCAAGAACCCTCACCTGTCAATTGGGACCACCACTTTCAGTGACCCCATGCGAAGTAGTGAGAGAGAATAAGCTTTCTTACCCTTCATTTGTGAACCCTTCAGTCGAAGCCGCTTGGAATAAGATAGGAGGAAAAGTTCATTCTAAATGGAGTGAAACATGTACTTCAGAATTTCTAGCACGCGCTGGGCTTTCTTGCGTGTGACGGCACTGTCTTGCCGGAGCTCTCCACACTGACACCCCACGCTTGTGGACCTTGGTGGCAGATGACAACACTGCAGCTGGAATTGAGTGTCTGGTACACTCTGTGTAACAGTGAAAACAATGTGATCACTTCGGTGAGCTAGTAGCCTGTGGACCAACAACTGGTAACAGTTGCCTCAGGGGCCAAAAGCCACGGTGTTTACAGCACCCTACTGGTTTGATTGGAGCAATCCAAGATGTCACAGAGTTAGTAATTGCCAAGCAGTCCGTACTGGTATCTTGACATACCGTGCAGTTTTGGATAGTGAAGGATGCCCTGACGGTACCCATAGGTAACAAGTGACACTATGGATCTAAGCAGGGGCTCACTCTACGCTGCTTTACAGCTGGCTGTGAGTTAAAAAACGTCTAGCTATCCACAACCTAGGGGACTAGGTTTTCCTTTTATTTAGATTACAATTAT
B5: Mobovirus A (nucleic acid)
DNA: TATTCTCCCACAAACCTTCTTGTAACTCTGTTAAGCCTTTTACATCCATGTAATTTAATTTTCTCCACCTAAAAGGATTTCCCCCATGGTCCTTTTTGGCTCGAACAAATGCTACATAGGGTCTTGTTTTCTCCCCCTGGCTCTCTTGCCAGGGTTCCATACCCCAATTCCTCTATTTCCATGATTTTTCATCATGGTTTATTTTTACTGTCTTCTTATTTTCTGAGGTGACCAACTCCTAAGCCGACTGGGTCGCGGAAGCCCGGACTCCTCGCATCACTAGGGTGCGTAGCGATGTAGGCGAAAATATTGGTTGCTAGATGCATACATATAGTGAATTGATACTACACCAAACTCTGTTCTTTTTGAAACTAGCTATTTTCTAAGTAAGGTAGGCTACGGGTGAAACCTTACCATTGCAGGTACGTGAACCGCAACGGACATTTGGCCGAAGACTGGTGTACCCACGTCAGTTATAGGACCTCTTCAACGTTGGTGGACGGCATGTCACTGATTAGTTAGGCTAGTGAATTTAAGTTCAGGGGGTATCTTTTAGCTTAAGCGTGTATTCTAGTAGGACTTGCAGAGCCTCCCCACCTAGGAGGATCTCTGTTTATAGCCCCTTTTCCTTGTTCCGTTAGTTTTCCACACTTTTACAATATTTGATGATTTGTT
B6: Hunnivirus A2 (nucleic acid, listed as Hunnivirus sp.)
DNA: ACAGTTTTTGACAAGGACCCTCACCTGTCAATCGGGACCACCACTTTCAGTGACCCCGTGCGAAGTGTTGAGAGAAAGTGAGCTTTCTTACCCTTCATTTGTGAACCCTTCAGTCGAAGCCGCTTGGAATAAGATGGAAGGAAATGTTCATTCTAAATGGAGTGAAACATATACTTAATTTCCAGTGTTTAGTGGTCTTTCCACTAGACAACGGCACTGTCTTGCCGGAACTCTACACACCAACATTCCACGCTTGTGGGACTCAAATGTTGGATGACACAGTTGTAGCTGGAACTGAGTGTTTAGTGCACTCTGTGTAACAGTGAAAACAATGTGATCACTTCGGTGGGCTAGTAGCCTGTGGACTAACAACTGGTAACAGTTGCCTCAGGGGCCAAAAGCCACGGTGTTAACAGCACCCTACTAGTTTGATTGGAGCAATCCATGATGTTACAGAGTTAGTAACTGCCAAACAGATTGTACTGGTATCTTGGCATACCGTGCAACTTAGGATAGTGAAGGATGCCCTGGCGGTACCCATAGGTAACAAGTGACACTATGGATCTAAACAGGGGCTCACTCTACGTTGCTTTACAACTAGCTGTGAGTTAAAAAACGTCTAACTATCCACAACCTAGGGGACTAGGTTTTCCTTTTTATTTTTATACACAACTA
B7: BRAV-2 (nucleic acid)
DNA: TTTGTTTTGCGGCTTTGCCGTTGTTCGGGTTTTACCTGTTTTCACACAGCAAAACAGGCCTTCTAGTTTCGTGCTTAAACGAGATCATGCTCGAACTAGAACTACATAGCTGGTCACTGGACTCATACCACACCTTGTGGAGCTTTATGGGAAAGGTGGCTAGTGGGCTGTGGAAGTGACTCTGACCACATGCCTCTCAAGTGTGGGAAATCACGGATCGGTGTAGCGACGACAACAGGCCTTGGGACACCCTCTCCAGTAATGGAGACCCAAGGGGCCAAAAGCCACGCCTCGTGCCCTGTTGTTCACAACCCCAGTGCGACCCGTGTTAGTACCTATTTGCGAGAACTGTGTCTGGACAGCTAAACACAACCCTAGTGGGAGACTAAGGATGCCCAGGAGGTACCCGGAGGTAACAAGTGACACTCTGGATCTGACCTGGGGAGAGAGGGCTTGCTTTACAGGCGCCTCTCTTTAAAAAGCTTCTATGTCTCATCAGGCACCGGAGGCCGGGCCTTTTCCTTTTAAAATTACACTTA
modifications: Bovine rhinitis A virus

For the data set, the system named is HEK293 cells. The data set is classed as cell-based, human. To be noted: luminescence from secreted Gluc in supernatant 24 hours after transfection of HEK293 cells; circular RNA encoding Gluc with the named IRES (UTR truncated to 675 nt).
The molecule B1 displayed an Expression of 1.35E+06. The same measure for B2: 1.09E+07.

On to B3, for which the Expression was found to be 6.48E+05. Then B4, with 1.61E+06.

For the molecule B5, the Expression was 3.44E+06.

B6 yielded an Expression of 6.38E+06. The same measure for B7: 3.98E+06.
